Substrate in this data set: N=C(N)NC(=N)N
In words: purified protein. It is filed as biochemical, Pseudomonas sp. KHPS1. Particulars: 100 mM potassium phosphate, pH 8.0, 25 °C, 0.5 mM NADH, 0.5 mM 2-oxoglutarate, 1.5 U GDH.

The Km is the substrate concentration at which the rate is half of its maximum. By kcat is commonly meant the number of substrate molecules converted per active site and unit of time at saturation.

B1: BguH (Pseudomonas sp. KHPS1) (protein)
chain: MSERNHEKGMLLAIEQALKAVASGEPPFGVVILDAQGELVAATHDEVNTRGDMSAHAETLAVRAACQVRGPSLEGCFLYTTCEPCPMCFTTAWLARIGGVVYATTMDEVHKILGDAQRELRVPVTQMNDLSGEPVTLVKGVLRDRCLQLFREHAATLATTK
notes: N-terminal His6 tag (pET28b), E. coli codon-optimised synthetic gene, E. coli BL21(DE3)-RIPL host
Turning to B1, the Km was 620 ± 160 µM and the kcat came out at 8.1 ± 0.8 s⁻¹.

The values are drawn from PMC11647477, “Biochemical and genomic evidence for converging metabolic routes of metformin and biguanide breakdown in environmental Pseudomonads” (The Journal of Biological Chemistry, 2024).
